Laboratory results as given in patent US11633499B2, “Anti-TMEM-180 antibody, anticancer drug and cancer testing method” (NATIONAL CANCER CENTER JAPAN, priority 2016, dated 2023).
Where a chain is given by its changes, count along the chain named. Names may count otherwise.

B1: clone 98: rat IgM anti-TMEM-180 monoclonal antibody; heavy chain variable region SEQ ID NO: 13, light chain variable region SEQ ID NO: 14 (antibody, V domains shown)
VH: MAVLVLLLCLVTFPTCVLSQVQLKESGPGLVQPSQTLSLTCTVSGFSLTRYNVHWVRQPTGKGLEWMGVIWTGGSTDYNSALKSRLSISRDTSKSQVFLKMNSLQTEDIATYYCARDLGYWGQGVMVTVSS
VL: MMSPAQFLFLLMLWIQETHSDIVMTQTPLSLSVAIGQSASISCKSSQSLKYRDGKTYLNWVFQSPGQSPKRLIYQVSKLDSGVPDRFSGTGSETDFTLKISRVEAEDLGVYYCCQGSYSPHTFGAGTKLELK
B2: Variant 1: Fc-modified clone of 1361-5 with triple substitutions S239D/A330L/1332E in the Fc region (antibody)
heavy: EVQLVESGGGLVQPGRSLKLSCVASGFTFNNYWMTWIRQAPGKGLEWVASITNTGGSTAYPDSVKGRFTISRDYAKSTLYLQMNSLRSEDTATYYCTRAGYSSYPDYFDYWGQGVMLTVSSASTKGPSVFPLAPSSKSTSGGTAALGCLVKDYFPEPVTVSWNSGALTSGVHTFPAVLQSSGLYSLSSVVTVPSSSLGTQTYICNVNHKPSNTKVDKKVEPKSCDKTHTCPPCPAPELLGGPDVFLFPPKPKDTLMISRTPEVTCVVVDVSHEDPEVKFNWYVDGVEVHNAKTKPREEQYNSTYRVVSVLTVLHQDWLNGKEYKCKVSNKALPLPEEKTISKAKGQPREPQVYTLPPSRDELTKNQVSLTCLVKGFYPSDIAVEWESNGQPENNYKTTPPVLDSDGSFFLYSKLTVDKSRWQQGNVFSCSVMHEALHNHYTQKSLSLSPGK
light: MMAPVQLLGLLLLWLPAMRCNIQMTQSPSLLSASVGDRVTLSCKAGQNIYNYLAWYQQKLGEAPKLLIYNANSLQTGIPSRFSGSGSGTDFTLTISSLQPEDVATYFCQQYSSGWTFGGGTKLELKRTVAAPSVFIFPPSDEQLKSGTASVVCLLNNFYPREAKVQWKVDNALQSGNSQESVTEQDSKDSTYSLSSTLTLSKADYEKHKVYACEVTHQGLSSPVTKSFNRGEC
B3: Variant 2: Fc-modified clone of 1361-5 with triple substitutions S239D/1332E/E333A in the Fc region (antibody)
heavy: B2 heavy with L334A, E337A
light: B2 light

Legend:
TMEM-180 = target: T1, TMEM-180 (Homo sapiens, UniProt Q14CX5); assay: FACS of DLD-1 parent line and TMEM-180 knockout line; type: binding
T1 construct: endogenous in cells; host or cells: DLD-1 colon cancer cell line (parent / wild type); culture supernatant exosomes in A20
T1 sequence (Q14CX5 1-517): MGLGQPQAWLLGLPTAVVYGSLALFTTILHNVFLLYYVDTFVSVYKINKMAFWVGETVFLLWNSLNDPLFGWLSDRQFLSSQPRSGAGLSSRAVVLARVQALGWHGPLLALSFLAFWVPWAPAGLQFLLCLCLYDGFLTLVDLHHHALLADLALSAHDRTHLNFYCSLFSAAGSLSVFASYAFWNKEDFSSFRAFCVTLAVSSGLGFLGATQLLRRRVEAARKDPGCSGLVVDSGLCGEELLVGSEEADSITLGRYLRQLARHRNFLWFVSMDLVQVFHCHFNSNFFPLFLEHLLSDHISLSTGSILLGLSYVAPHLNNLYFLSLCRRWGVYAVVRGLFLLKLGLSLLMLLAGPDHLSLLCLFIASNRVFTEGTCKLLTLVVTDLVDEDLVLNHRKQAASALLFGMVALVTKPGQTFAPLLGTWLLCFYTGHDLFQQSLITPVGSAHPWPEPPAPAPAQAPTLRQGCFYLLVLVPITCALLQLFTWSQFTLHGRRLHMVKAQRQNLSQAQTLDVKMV
Procedure: The plate was centrifuged for 3 minutes at 440×g and 4° C. followed by removing the supernatant, adding antibody-producing hybridoma culture supernatant or antibody solution to the cell pellet at 50 μL/well and suspending therein. After allowing to react for 45 minutes on ice, the plate was washed three times with a mixture of 0.1% BSA, 2 mM EDTA and PBS at 200 μL/well. The supernatant was removed and secondary antibody was added to the cell pellet at 50 μL/well followed by suspending the cells therein. […] After allowing to react for 45 minutes on ice, the plate was washed three times with a mixture of 0.1% BSA, 2 mM EDTA and PBS at 200 μL/well. […] The cells stained in this manner were measured using a flow cytometer such as the Guava easyCyte 8HT (Merck Millipore Corporation) followed by analysis of the resulting data using FlowJO (Tomy Digital Biology Co., Ltd.). FACS analysis was carried out using colon cancer, brain tumor and hematologic cancer.
Flow cytometry was carried out in accordance with the procedure described in the above-mentioned section 3. […] The supernatant of a culture of hybridoma producing rat IgM antibody clone 365 was used as a negative control after similarly diluting to 1 μg/mL. […] A mixture of RPMI and 10% FBS was used to dilute each of the antibodies. Furthermore, antibody concentration in the hybridoma culture supernatant was measured by rat IgM-specific ELISA (Bethyl Laboratories).

[1] = tested on: human colon cancer formalin-fixed section; assay: Immunostaining of formalin-fixed section of human colon cancer surgical specimens; type: binding; settings: 1 μg/mL, FIG. 6
Procedure: Anti-TMEM-180 IgM rat antibody (clone 98) was reacted with a colon cancer formalin-fixed section at 1 μg/mL. HRP-labeled anti-rat antibody was used as secondary antibody and the section was stained with DAB followed by post-staining with hematoxylin.

colon cancer DLD-1 cells = assay: Cytocidal effect of anti-TMEM-180 IgM antibody (WST-8), DLD-1; type: cell-based, human; settings: hybridoma culture supernatant adjusted to 80, 20 or 5 μg/mL, 96 hours, FIGS. 7 and 8
Procedure: (§1) DLD-1 cells and K562 cells were added to a 96-well plate at 1×10^3 cells/100 μL/well followed by culturing for 24 hours. 50 μL of medium were removed from each well of the 96-well plate followed by the addition of rat IgM antibody clone 98-producing hybridoma culture supernatant or rat IgM antibody clone 101-producing hybridoma culture supernatant, in which antibody concentration had been adjusted to 80 μg/mL, 20 μg/mL or 5 μg/mL, at 50 μL/well. Here, n number in each culture condition was 3, and wells containing medium only were prepared as controls. […] After culturing for 96 hours, WST-8 (Dojindo Laboratories, Cell Counting Kit-8) was added at 10 μL/well followed by measuring absorbance at 450 nm with a microplate reader after culturing for 3 hours. The relative values of absorbance at each antibody concentration were plotted by plotting antibody concentration on the horizontal axis and assigning a value of 1 to the optical absorbance of the well containing medium only. […] Cytocidal effects were also observed for other colon cancer cells Difi, Carl, SW480 and Colo201.

[2] = tested on: hematologic tumor K562 cells; assay: Cytocidal effect of anti-TMEM-180 IgM antibody (WST-8), K562; type: cell-based; settings: hybridoma culture supernatant adjusted to 80, 20 or 5 μg/mL, 96 hours, FIGS. 7 and 8
Procedure: as §1

colon cancer cell lines = assay: Flow cytometry (FACS) with anti-TMEM-180 IgM clones, colon cancer; type: binding; settings: six types of colon cancers; FIG. 3
Procedure: (§2) Cancer cells targeted for measurement were cultured in medium and then added to a V-bottom 96-well plate (Corning Incorporated) to a concentration of 1×10^5 cells/well. The plate was centrifuged for 3 minutes at 440×g and 4° C. followed by removing the supernatant, adding antibody-producing hybridoma culture supernatant or antibody solution to the cell pellet at 50 μL/well and suspending therein. After allowing to react for 45 minutes on ice, the plate was washed three times with a mixture of 0.1% BSA, 2 mM EDTA and PBS at 200 μL/well. The supernatant was removed and secondary antibody was added to the cell pellet at 50 μL/well followed by suspending the cells therein. ALEXAFLUOR 647@ (fluorescent compound) goat anti-rat IgG (H-L) (Life Technologies Corporation) was used for the secondary antibody after diluting 400-fold with a mixture of 0.1% BSA, 2 mM EDTA and PBS. After allowing to react for 45 minutes on ice, the plate was washed three times with a mixture of 0.1% BSA, 2 mM EDTA and PBS at 200 μL/well. After removing the supernatant, 50 ng/mL of propidium iodide, 0.1% BSA, 2 mM EDTA and PBS were added to the cell pellet at 250 µL/well followed by suspending therein. The cells stained in this manner were measured using a flow cytometer such as the Guava easyCyte 8HT (Merck Millipore Corporation) followed by analysis of the resulting data using FlowJO (Tomy Digital Biology Co., Ltd.). FACS analysis was carried out using colon cancer, brain tumor and hematologic cancer.

brain tumor cell lines = assay: Flow cytometry (FACS) with anti-TMEM-180 IgM clones, brain tumor; type: binding; settings: four types of brain tumors; FIG. 3
Procedure: as §2

DLD-1 colon cancer cells = assay: Fluorescent immunostaining of DLD-1 colon cancer cells; type: binding, human; settings: fixed and permeabilized DLD-1; antibody concentrations of clones not aligned; FIG. 4
Procedure: DLD-1 cells were added to a 96-well plate (Corning Incorporated, CeIIBIND) to a concentration of 5×10^3 cells/well and subjected to cell staining after culturing for 2 days. The cells were subjected to fixation and permeation treatment in the manner indicated below. After washing the cell culturing plate twice with PBS at 200 μL/well, the washings were removed followed by the addition of 4% para-formaldehyde-phosphate buffer (Wako Pure Chemical Industries, Ltd.) containing 0.1% TRITON™ (surfactant) X-100 (Wako Pure Chemical Industries, Ltd.) at 100 µL/well while cooling with ice and fixing the cells for 10 minutes. After removing the fixation solution, the plate was washed once with PBS at 200 μL/well and once with a mixture of 1% FBS in PBS at 200 μL/well to obtain a cell-immobilized plate. The cells were stained in the manner indicated below. Namely, after removing medium from the non-immobilized cell culturing plate and removing washings from the cell-immobilized plate, […] hybridoma culture supernatant or diluted antibody solution was added at 50 μL/well. After allowing to react for 1 hour on ice, the plate was washed once with PBS at 200 μL/well and twice with a mixture of 1% FBS in PBS at 200 μL/well. After removing the washings, a mixture of 5 μg/mL ALEXAFLUOR 647@ (fluorescent compound) goat anti-rat IgG (H-L), 2 μg/mL Hoechst 33342 and 1% FBS/PBS was added at 50 μL/well. After allowing to react for 1 hour on ice, the plate was washed twice with PBS at 200 μL/well. PBS was then added at 50 μL/well followed by measuring with ArrayScan (Thermo Fisher Scientific Inc.).

wild type DLD-1 cells = assay: ADCC activity (51Cr release, TK176V effector cells), wild type DLD-1; type: cell-based, human; settings: ET ratio 40; 4 hours; 0.064 to 1,000 ng/mL; FIGS. 20A to 20D
Procedure: Specifically, TK176V (a natural killer cell line stably expressing FcγRIII) was used as an effector cell, which was obtained from Chemicals Evaluation and Research Institute, Japan. The wild type DLD-1 cell line was used as a target cell.
T1 76V was cultured in RPM11640 containing 10 ng/mL IL-2 and 10% FBS. For passages, the medium was diluted with a fresh medium every 2 to 3 days. In the passage, the cells were detached by a trypsin treatment and then suspended in a fresh medium to be plated on a dish every 2 to 3 days.
The measurement of the ADCC activity was performed as described below.
First, the amount of 51Cr release was measured when only the target cells were cultured in medium as a negative control, which is referred to as “Spontaneous release measurement”. The amount of 51 Cr release was measured when the all target cells were damaged by adding 0.1% TRITON™ (surfactant) X-100, which is referred to as “Max release measurement.”
1) Adding DLD-1 WT labelled with 50 μCi of ^51Cr to a U-bottom, 96 well plate at 5,000 cells/50 μL/well.
2) Adding TK176V at 200,000 cells/50 μL/well (ET ratio: 40): A medium was added at 50 μL/well to the well for Spontaneous release measurement and the well for Max release measurement. […]

Molecule	FACS shift, TMEM-180 knockout line versus parent line (TMEM-180; DLD-1 parent line vs TMEM-180 knockout line, FIG. 5)	specific recognition of TMEM-180 (TMEM-180; conclusion from DLD-1 parent vs knockout FACS)	staining of colon cancer section ([1]; DAB)	localisation of staining in colon cancer cells [1]	cytocidal effects against DLD-1 cells (colon cancer DLD-1 cells)	cytocidal effects against K562 cells [2]	FACS reactivity to colon cancers (colon cancer cell lines)	FACS reactivity to brain tumors (brain tumor cell lines)	fluorescent immunostaining (pattern, intensity) (DLD-1 colon cancer cells)	ADCC activity against wild type DLD-1 cells (wild type DLD-1 cells)
B1	considerable left shift	specifically recognize TMEM-180	stained specifically	Both the cell membrane and cytoplasm of the colon cancer cells were stained	demonstrated cytocidal effects	did not demonstrate cytocidal effects	positive for all six types of colon cancers	all four types of brain tumors	stained primarily in the membrane	
B2										equal to or stronger than that of the 1361-5 antibody
B3										equal to or stronger than that of the 1361-5 antibody
